Earlier results in PMC6776250.

Target: RNase Y (Bacillus subtilis) (UniProt O31774)
Test: SPR

Chain of UniProt O31774 (O31774 whole entry): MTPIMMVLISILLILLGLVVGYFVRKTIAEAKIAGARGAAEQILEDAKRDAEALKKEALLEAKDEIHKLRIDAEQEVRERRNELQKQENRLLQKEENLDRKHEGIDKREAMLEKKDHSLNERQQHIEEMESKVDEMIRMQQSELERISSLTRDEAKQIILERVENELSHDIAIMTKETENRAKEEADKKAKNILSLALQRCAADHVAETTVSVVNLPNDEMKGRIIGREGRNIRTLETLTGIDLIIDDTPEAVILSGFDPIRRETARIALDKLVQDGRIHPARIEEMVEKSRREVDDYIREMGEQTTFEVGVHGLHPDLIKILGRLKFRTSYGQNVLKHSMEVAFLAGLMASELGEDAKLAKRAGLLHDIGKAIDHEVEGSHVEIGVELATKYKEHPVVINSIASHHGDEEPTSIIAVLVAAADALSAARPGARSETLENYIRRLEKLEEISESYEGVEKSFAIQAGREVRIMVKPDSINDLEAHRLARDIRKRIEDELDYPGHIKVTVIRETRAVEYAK

Q: With PNPase (from UniProt P50849) as the substance, how does the Kd read?
A: 5 nM
